Paper PMC8811885 (ACS Omega, 2022)

Target: the molecule itself
Test: SEC-MALS

B1: human ELP1 with a C-terminal 3xFLAG tag (natural protein, UniProt O95163 1-1332, looked up)
chain: MRNLKLFRTLEFRDIQGPGNPQCFSLRTEQGTVLIGSEHGLIEVDPVSREVKNEVSLVAEGFLPEDGSGRIVGVQDLLDQESVCVATASGDVILCSLSTQQLECVGSVASGISVMSWSPDQELVLLATGQQTLIMMTKDFEPILEQQIHQDDFGESKFITVGWGRKETQFHGSEGRQAAFQMQMHESALPWDDHRPQVTWRGDGQFFAVSVVCPETGARKVRVWNREFALQSTSEPVAGLGPALAWKPSGSLIASTQDKPNQQDIVFFEKNGLLHGHFTLPFLKDEVKVNDLLWNADSSVLAVWLEDLQREESSIPKTCVQLWTVGNYHWYLKQSLSFSTCGKSKIVSLMWDPVTPYRLHVLCQGWHYLAYDWHWTTDRSVGDNSSDLSNVAVIDGNRVLVTVFRQTVVPPPMCTYQLLFPHPVNQVTFLAHPQKSNDLAVLDASNQISVYKCGDCPSADPTVKLGAVGGSGFKVCLRTPHLEKRYKIQFENNEDQDVNPLKLGLLTWIEEDVFLAVSHSEFSPRSVIHHLTAASSEMDEEHGQLNVSSSAAVDGVIISLCCNSKTKSVVLQLADGQIFKYLWESPSLAIKPWKNSGGFPVRFPYPCTQTELAMIGEEECVLGLTDRCRFFINDIEVASNITSFAVYDEFLLLTTHSHTCQCFCLRDASFKTLQAGLSSNHVSHGEVLRKVERGSRIVTVVPQDTKLVLQMPRGNLEVVHHRALVLAQIRKWLDKLMFKEAFECMRKLRINLNLIYDHNPKVFLGNVETFIKQIDSVNHINLFFTELKEEDVTKTMYPAPVTSSVYLSRDPDGNKIDLVCDAMRAVMESINPHKYCLSILTSHVKKTTPELEIVLQKVHELQGNAPSDPDAVSAEEALKYLLHLVDVNELYDHSLGTYDFDLVLMVAEKSQKDPKEYLPFLNTLKKMETNYQRFTIDKYLKRYEKAIGHLSKCGPEYFPECLNLIKDKNLYNEALKLYSPSSQQYQDISIAYGEHLMQEHMYEPAGLMFARCGAHEKALSAFLTCGNWKQALCVAAQLNFTKDQLVGLGRTLAGKLVEQRKHIDAAMVLEECAQDYEEAVLLLLEGAAWEEALRLVYKYNRLDIIETNVKPSILEAQKNYMAFLDSQTATFSRHKKRLLVVRELKEQAQQAGLDDEVPHGQESDLFSETSSVVSGSEMSGKYSHSNSRISARSSKNRRKAERKKHSLKEGSPLEDLALLEALSEVVQNTENLKDEVYHILKVLFLFEFDEQGRELQKAFEDTLQLMERSLPEIWTLTYQQNSATPVLGPNSTANSIMASYQQQKTSVPVLDAELFIPPKINRRTQWKLSLLD
Question: B1 was tested. Which “stoichiometry N” value did it give?
Answer: Its value is 2.
